T1: human IL-17F (human, UniProt Q96PD4 31-163, biotinylated with Sulfo-NHS-LC-Biotin in the AlphaScreen assays only)
T1 sequence: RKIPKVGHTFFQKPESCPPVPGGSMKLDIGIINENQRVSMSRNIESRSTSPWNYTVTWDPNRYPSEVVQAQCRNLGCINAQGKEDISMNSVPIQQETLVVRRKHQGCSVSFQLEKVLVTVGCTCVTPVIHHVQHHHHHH

T2: marmoset IL-17A (marmoset, IL-17A is a disulfide-linked homodimer. One chain is given.)
T2 chain: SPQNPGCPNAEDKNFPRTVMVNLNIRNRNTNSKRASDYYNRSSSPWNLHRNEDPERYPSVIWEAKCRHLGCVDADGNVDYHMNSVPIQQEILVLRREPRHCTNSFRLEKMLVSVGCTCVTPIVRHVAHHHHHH

T3: mouse IL-17A (mouse, UniProt Q62386 26-158)
T3 sequence (looked up): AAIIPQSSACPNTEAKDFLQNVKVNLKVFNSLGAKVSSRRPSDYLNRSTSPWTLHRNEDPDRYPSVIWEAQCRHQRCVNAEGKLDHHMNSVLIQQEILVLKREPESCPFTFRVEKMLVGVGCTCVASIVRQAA

T4: rat IL-17A (rat, UniProt Q61453 18-150, limits assumed)
T4 sequence (looked up): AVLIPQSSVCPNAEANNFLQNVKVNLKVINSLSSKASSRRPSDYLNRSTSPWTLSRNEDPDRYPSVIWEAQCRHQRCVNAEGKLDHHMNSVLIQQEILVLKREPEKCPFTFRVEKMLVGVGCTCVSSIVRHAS

T5: human IL-17F (human, UniProt Q96PD4 31-163)
T5 construct: GenBank AF384857, expressed in Hek293 as 6-His C-terminal tagged protein; also called hIL-17F; IL-17F-6HIS
T5 sequence: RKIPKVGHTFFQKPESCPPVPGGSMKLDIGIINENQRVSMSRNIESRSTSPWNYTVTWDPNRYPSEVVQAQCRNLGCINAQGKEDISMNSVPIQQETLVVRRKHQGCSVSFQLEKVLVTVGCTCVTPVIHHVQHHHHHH

T6: marmoset IL-17F (marmoset, UniProt A6N6I9 31-163)
T6 sequence (looked up): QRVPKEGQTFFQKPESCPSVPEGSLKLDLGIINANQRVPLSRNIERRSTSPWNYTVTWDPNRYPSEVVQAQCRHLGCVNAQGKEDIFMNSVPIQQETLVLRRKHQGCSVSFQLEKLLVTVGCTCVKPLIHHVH

T7: mouse IL-17F (mouse, UniProt Q7TNI7 29-161)
T7 sequence (looked up): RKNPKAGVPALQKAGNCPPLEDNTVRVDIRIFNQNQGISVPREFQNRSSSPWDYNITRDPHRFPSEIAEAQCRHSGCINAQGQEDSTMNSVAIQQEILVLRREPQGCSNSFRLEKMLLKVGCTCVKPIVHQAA

T8: rat IL-17F (rat, UniProt Q5BJ95 29-161)
T8 sequence (looked up): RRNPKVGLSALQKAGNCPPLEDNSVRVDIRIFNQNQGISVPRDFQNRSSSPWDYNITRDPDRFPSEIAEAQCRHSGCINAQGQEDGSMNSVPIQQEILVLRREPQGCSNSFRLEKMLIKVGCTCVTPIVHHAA

B1: 13E02 (VHH)
VHH: EVQLVESGGGLVQAGGSLRLSCAASGRTYDAMGWLRQAPGKEREFVAAISGSGDDTYYADSVKGRFTISKDNAGITMYLQMNSLKPEDTAVYYCATRRGLYYVWDSNDYENWGQGTQVTVSS
notes: Class 4 Nanobody (cross-reactive: anti-IL-17A, IL-17F and IL-17A/F); also called IL17MS13E02; not shown: c-myc, His6 tag
B2: 13B03 (VHH)
VHH: EVQLVESGGGSVQAGDSLRLSCAASGRANSINWFGWFRQTPGKEREFVAGIRWSDAYTEYANSVKGRFTISRDNAKNTVDLQMDSLKPEDTAVYYCVLDLSTVRYWGQGTQVTVSS
notes: Class 4 Nanobody (cross-reactive: anti-IL-17A, IL-17F and IL-17A/F); also called IL17MS13B03; not shown: c-myc, His6 tag
B3: 10A04 (VHH)
VHH: EVQLVESGGGLVQPGGSLRLSCAASGFTFSSYWMYWVRQAPGKGLEWISALAPGGGNRYYAESVNGRFTISRDNAKNSLYLQMNSLKSEDTAVYYCAKDHNVGYRTGEYDYGGQGTQVTVSS
notes: Class 4 Nanobody (cross-reactive: anti-IL-17A, IL-17F and IL-17A/F); not shown: c-myc, His6 tag
B4: 11A06 (VHH)
VHH: EVQLVESGGGLVQPGESLRLSCKASGFSLDYYALGWFRQAPGKEREGISCITSSDASAYYTDSVKGRFTISRDNSKNTVYLQMNSLKTEDTAIYYCAAALLTCSSYYDAYTYWGQGTQVTVSS
notes: Class 2

Key:
human IL-17A [1] = target: T9, human IL-17A (human, UniProt Q16552 24-155, biotinylated with Sulfo-NHS-LC-Biotin in the AlphaScreen assays only); assay: cell-based or functional assay
T9 sequence (Q16552 other isoform, or with tags, fused parts or gaps): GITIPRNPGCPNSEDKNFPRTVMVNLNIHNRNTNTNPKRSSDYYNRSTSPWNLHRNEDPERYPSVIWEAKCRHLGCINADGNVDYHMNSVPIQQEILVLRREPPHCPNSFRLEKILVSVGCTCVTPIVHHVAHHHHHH

human IL-17F [2] = target: T1, human IL-17F; assay: cell-based or functional assay
[3] = target: T10, human IL-17A/F heterodimer (human, UniProt Q16552 24-155; Q96PD4 31-163, limits assumed, biotinylated with Sulfo-NHS-LC-Biotin in the AlphaScreen assays only); assay: cell-based or functional assay
T10 sequence (Q16552 24-155 limits assumed, chain 1 of 2, one chain of several): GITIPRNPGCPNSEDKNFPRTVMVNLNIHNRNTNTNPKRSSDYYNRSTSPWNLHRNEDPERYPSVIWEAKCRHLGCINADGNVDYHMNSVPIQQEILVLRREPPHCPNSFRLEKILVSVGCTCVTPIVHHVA

human IL-17A [4] = target: T9, human IL-17A; assay: AlphaScreen competition, hIL-17A - IL-17RA-Fc;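 note: receptor Fc-fusion plus Acceptor and streptavidin Donor beads incubated with the mixture for 1 h at room temperature before reading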
Protocol: (§1) To this mixture, the IL-17RA or IL-17RC Fc-fusions, Acceptor beads and the streptavidin Donor beads were added and further incubated for 1 hour at RT.

human IL-17A [5] = target: T9, human IL-17A; assay: AlphaScreen competition, hIL-17A - IL-17RC-Fc;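 note: Read-out after 1 h at room temperature with the receptor Fc-fusion, Acceptor beads and streptavidin-coated Donor beads present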
Protocol: as §1

human IL-17F [6] = target: T1, human IL-17F; assay: AlphaScreen competition, hIL-17F - IL-17RA-Fc
Protocol: as §1

human IL-17F [7] = target: T1, human IL-17F; assay: AlphaScreen competition, hIL-17F - IL-17RC-Fc
Protocol: as §1

human IL-17A [8] = target: T9, human IL-17A; assay: SPR Biacore, hIL-17A on chip; purified protein
human IL-17F [9] = target: T1, human IL-17F; assay: SPR Biacore, hIL-17F on chip; purified protein
Protocol: (§2) Off-rates of the periplasmic extracts containing anti-IL-17 Nanobodies were measured by Surface Plasmon Resonance (SPR) using a Biacore T100 instrument. […] Periplasmic extracts containing IL-17 neutralizing Nanobodies were injected for 2 minutes at a flow rate of 45 μl/min to allow binding to chip-bound antigen. Next, binding buffer without periplasmic extracts was sent over the chip at the same flow rate to allow spontaneous dissociation of bound Nanobody. From the sensorgrams obtained for the different periplasmic extracts koff-values (k₄) were calculated.

[10] = target: T10, human IL-17A/F heterodimer; assay: AlphaScreen competition, hIL-17A/F - IL-17RA-Fc
Protocol: as §1

[11] = target: T10, human IL-17A/F heterodimer; assay: AlphaScreen competition, hIL-17A/F - IL-17RC-Fc
Protocol: as §1

[12] = target: T10, human IL-17A/F heterodimer; assay: SPR Biacore, hIL-17A/F on chip; purified protein
human IL-17A [13] = target: T9, human IL-17A; assay: SPR Biacore, hIL-17A on chip; periplasmic extract (*)
Protocol: as §2

human IL-17A [14] = target: T11, human IL-17A (human, UniProt Q16552 24-155); assay: ELISA, coated IL-17A
T11 construct: secreted form (GenBank U32659) expressed in Hek293 with C-terminal 6-His; also called hIL-17A; IL-17A-6HIS
T11 sequence (Q16552 other isoform, or with tags, fused parts or gaps): as the sequence (Q16552 other isoform, or with tags, fused parts or gaps) above
Protocol: (§3) Binding of a selected panel of anti-IL-17 Nanobodies to IL-17 of other species was assessed using a binding ELISA. […] HRP (horseradish peroxidase) conjugated anti-myc (Serotec, MCA 2200P) was used for detection using esTMB as substrate.

marmoset IL-17A = target: T2, marmoset IL-17A; assay: ELISA, coated IL-17A
Protocol: as §3

mouse IL-17A = target: T3, mouse IL-17A; assay: ELISA, coated IL-17A
Protocol: as §3

rat IL-17A = target: T4, rat IL-17A; assay: ELISA, coated IL-17A
Protocol: as §3

guinea pig IL-17A = guinea pig IL-17A (guinea pig); assay: ELISA, coated IL-17A
Protocol: as §3

human IL-17F [15] = target: T5, human IL-17F; assay: ELISA, coated IL-17F;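 note: binding ELISA on coated antigen from various species, with bound Nanobodies revealed by an HRP-linked anti-myc antibody and esTMB substrate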
Protocol: as §3

marmoset IL-17F = target: T6, marmoset IL-17F; assay: ELISA, coated IL-17F;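 note: binding ELISA on coated antigen from various species, with bound Nanobodies revealed by an HRP-linked anti-myc antibody and esTMB substrate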
Protocol: as §3

mouse IL-17F = target: T7, mouse IL-17F; assay: ELISA, coated IL-17F;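 note: binding ELISA on coated antigen from various species, with bound Nanobodies revealed by an HRP-linked anti-myc antibody and esTMB substrate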
Protocol: as §3

rat IL-17F = target: T8, rat IL-17F; assay: ELISA, coated IL-17F;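 note: binding ELISA on coated antigen from various species, with bound Nanobodies revealed by an HRP-linked anti-myc antibody and esTMB substrate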
Protocol: as §3

human IL-17A [16] = target: T11, human IL-17A; assay: SPR, IL-17A-Nanobody complex over captured IL-17RA
Description: The receptor (IL-17RA or IL-17RC) was captured via its human Fc-tail by an anti-human IgG-Fc antibody coated on the chip.

Binder | IL-17A-induced IL-6 production in HT-1080 cells, Emax (human IL-17A [1]) [%] | IL-17A-induced IL-6 production in HT-1080 cells, IC50 (human IL-17A [1]) [nM] | IL-17F-induced IL-6 production in HT-1080 cells, Emax (human IL-17F [2]) [%] | IL-17F-induced IL-6 production in HT-1080 cells, IC50 (human IL-17F [2]) [nM] | IL-17A/F-induced IL-6 production in HT-1080 cells, Emax [3] [%] | IL-17A/F-induced IL-6 production in HT-1080 cells, IC50 [3] [nM] | IC50 (human IL-17A [4]) [nM] | IC50 (human IL-17A [5]) [nM] | IC50 (human IL-17F [6]) [nM] | IC50 (human IL-17F [7]) [nM] | koff (human IL-17A [8]) [s⁻¹] | koff (human IL-17F [9]) [s⁻¹] | IC50 [10] [nM] | IC50 [11] [nM] | koff [12] [s⁻¹] | other results
B1 | 102 | 3.5 | 86.5 | 104 | 108 | 21.7 | 0.067 | 0.187 | 0.395 | 0.214 | 0.00013 | 0.0036 | 0.071 | 0.117 | 7.1e-05 | –
B2 | 101 | 2.9 | 85.5 | 149 | 112 | 26.8 | 0.056 | 0.202 | 2.11 | 0.848 | 6.3e-05 | 0.0058 | 0.079 | 0.031 | 3.6e-05 | –
B3 | 31.5 | 65.4 | 102 | 112 | 79.5 | 122 | 78.1 | > 250 | 0.746 | 0.22 | – | 0.0048 | 37.7 | 15.6 | 0.015 | koff (human IL-17A [13]): < 0.0002 s⁻¹
B4 | – | – | – | – | – | – | – | – | – | – | – | – | – | – | – | OD (human IL-17A [14]): 1.69 OD; OD (marmoset IL-17A): 1.71 OD; OD (mouse IL-17A): 0.004 OD; OD (rat IL-17A): 0.008 OD; OD (guinea pig IL-17A): 0.007 OD; OD (human IL-17F [15]): 0.673 OD; OD (marmoset IL-17F): 0.0225 OD; OD (mouse IL-17F): 0.0455 OD; OD (rat IL-17F): 0.0045 OD; % Biacore binding (IL-17A-NB)-IL-17RA (human IL-17A [16]): -0.35%
